How the values were obtained:
[1] = target: T1, Core_IIIN-es_KEKE; assay: two-hybrid library CCmax;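 further: natural log of median RNA to DNA barcode read ratio; higher means stronger binding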
T1 chain: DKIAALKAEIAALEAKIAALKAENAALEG

[2] = target: T2, O10-bS; assay: two-hybrid library CCNG1;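 further: natural log of median RNA to DNA barcode read ratio; higher means stronger binding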
T2 chain: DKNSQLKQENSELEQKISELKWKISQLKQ

[3] = target: T3, O1-bS; assay: two-hybrid library CCNG1;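 further: natural log of median RNA to DNA barcode read ratio; higher means stronger binding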
T3 chain: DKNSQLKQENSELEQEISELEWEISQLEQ

[4] = target: T4, O12-bS; assay: two-hybrid library CCNG1;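 further: natural log of median RNA to DNA barcode read ratio; higher means stronger binding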
T4 chain: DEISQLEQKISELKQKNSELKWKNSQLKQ

[5] = target: T5, O7-bS; assay: two-hybrid library CCNG1
T5 chain: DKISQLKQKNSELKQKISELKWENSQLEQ

[6] = target: T6, O9-bS; assay: two-hybrid library CCNG1
T6 chain: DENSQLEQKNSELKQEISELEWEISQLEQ

[7] = target: T7, O11-bS; assay: two-hybrid library CCNG1
T7 chain: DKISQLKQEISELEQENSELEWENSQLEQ

[8] = target: T8, O13-bS; assay: two-hybrid library CCNG1
T8 chain: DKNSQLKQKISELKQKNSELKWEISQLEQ

[9] = target: T9, O2-bS; assay: two-hybrid library CCNG1
T9 chain: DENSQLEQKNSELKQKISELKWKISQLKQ

[10] = target: T10, O16-bS; assay: two-hybrid library CCNG1
T10 chain: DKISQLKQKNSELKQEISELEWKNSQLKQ

[11] = target: T11, O14-bS; assay: two-hybrid library CCNG1
T11 chain: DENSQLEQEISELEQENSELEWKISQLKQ

[12] = target: T12, O5-bS; assay: two-hybrid library CCNG1
T12 chain: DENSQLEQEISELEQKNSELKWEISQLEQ

[13] = target: T13, O3-bS; assay: two-hybrid library CCNG1
T13 chain: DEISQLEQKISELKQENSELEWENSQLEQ

[14] = target: T14, O6-bS; assay: two-hybrid library CCNG1
T14 chain: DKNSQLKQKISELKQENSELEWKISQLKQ

[15] = target: T15, O8-bS; assay: two-hybrid library CCNG1
T15 chain: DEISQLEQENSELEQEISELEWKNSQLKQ

[16] = target: T16, O15-bS; assay: two-hybrid library CCNG1
T16 chain: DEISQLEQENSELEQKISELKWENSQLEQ

[17] = target: T17, O4-bS; assay: two-hybrid library CCNG1
T17 chain: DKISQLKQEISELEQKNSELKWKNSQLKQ

[18] = target: T18, Core_IIII-es_KEEE; assay: two-hybrid library CCmax; details: mean of both orientations
T18 chain: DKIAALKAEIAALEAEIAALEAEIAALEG

[19] = target: T19, Core_NINI-es_KEEE; assay: two-hybrid library CCmax; details: mean of both orientations
T19 chain: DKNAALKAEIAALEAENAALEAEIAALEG

[20] = target: T20, Core_NINI-es_KEKE; assay: two-hybrid library CCmax; details: mean of both orientations
T20 chain: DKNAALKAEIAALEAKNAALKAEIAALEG

[21] = target: T21, Core_IINN-es_KEKE; assay: two-hybrid library CCmax; details: mean of both orientations
T21 chain: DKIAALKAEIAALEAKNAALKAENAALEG

[22] = target: T22, Core_IIIN-es_KEEE; assay: two-hybrid library CCmax; details: mean of both orientations
T22 chain: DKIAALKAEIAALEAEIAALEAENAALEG

[23] = target: T23, Core_INNI-es_KKKE; assay: two-hybrid library CCmax; details: mean of both orientations
T23 chain: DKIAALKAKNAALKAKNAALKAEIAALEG

[24] = target: T24, 4H3414-bH; assay: two-hybrid library CCNG1
T24 chain: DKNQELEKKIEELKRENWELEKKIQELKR

[25] = target: T25, 4H3129-bH; assay: two-hybrid library CCNG1
T25 chain: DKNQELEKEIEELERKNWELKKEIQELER

[26] = target: T26, P5bH1; assay: two-hybrid library CCNG1
T26 chain: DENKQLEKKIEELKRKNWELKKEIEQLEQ

[27] = target: T27, 4H1544-bH; assay: two-hybrid library CCNG1
T27 chain: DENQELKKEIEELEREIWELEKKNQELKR

[28] = target: T28, 4H1449-bH; assay: two-hybrid library CCNG1
T28 chain: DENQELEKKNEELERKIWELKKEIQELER

[29] = target: T29, 4H584-bH; assay: two-hybrid library CCNG1
T29 chain: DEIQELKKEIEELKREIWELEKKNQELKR

[30] = target: T30, 4H3638-bH; assay: two-hybrid library CCNG1
T30 chain: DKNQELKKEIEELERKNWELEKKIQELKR

[31] = target: T31, 4H1629-bH; assay: two-hybrid library CCNG1
T31 chain: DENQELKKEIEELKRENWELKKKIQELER

[32] = target: T32, 4H3172-bH; assay: two-hybrid library CCNG1
T32 chain: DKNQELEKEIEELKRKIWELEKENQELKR

[33] = target: T33, 4H3628-bH; assay: two-hybrid library CCNG1
T33 chain: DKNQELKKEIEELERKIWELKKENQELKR

[34] = target: T34, 4H850-bH; assay: two-hybrid library CCNG1
T34 chain: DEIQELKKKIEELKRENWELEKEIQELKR

[35] = target: T35, 4H1359-bH; assay: two-hybrid library CCNG1
T35 chain: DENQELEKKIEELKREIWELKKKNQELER

[36] = target: T36, 4H1348-bH; assay: two-hybrid library CCNG1
T36 chain: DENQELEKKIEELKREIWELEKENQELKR

[37] = target: T37, 4H570-bH; assay: two-hybrid library CCNG1
T37 chain: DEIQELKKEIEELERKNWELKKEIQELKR

[38] = target: T38, P8A-bN; assay: two-hybrid library CCNG1
T38 chain: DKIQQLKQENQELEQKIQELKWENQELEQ

[39] = target: T39, 4H1222-bH; assay: two-hybrid library CCNG1
T39 chain: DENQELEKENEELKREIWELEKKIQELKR

[40] = target: T40, 4H619-bH; assay: two-hybrid library CCNG1
T40 chain: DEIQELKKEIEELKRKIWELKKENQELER

[41] = target: T41, 4H1985-bH; assay: two-hybrid library CCNG1
T41 chain: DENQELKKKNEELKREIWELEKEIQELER

[42] = target: T42, 4H1710-bH; assay: two-hybrid library CCNG1
T42 chain: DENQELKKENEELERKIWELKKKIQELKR

[43] = target: T43, 4H741-bH; assay: two-hybrid library CCNG1
T43 chain: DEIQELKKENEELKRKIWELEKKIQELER

[44] = target: T44, 4H1393-bH; assay: two-hybrid library CCNG1
T44 chain: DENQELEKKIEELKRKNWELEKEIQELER

[45] = target: T45, 4H3817-bH; assay: two-hybrid library CCNG1
T45 chain: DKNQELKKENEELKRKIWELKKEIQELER

[46] = target: T46, 4H3858-bH; assay: two-hybrid library CCNG1
T46 chain: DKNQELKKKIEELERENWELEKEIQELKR

[47] = target: T47, 4H3974-bH; assay: two-hybrid library CCNG1
T47 chain: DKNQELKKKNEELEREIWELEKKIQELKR

[48] = target: T48, 4H1373-bH; assay: two-hybrid library CCNG1
T48 chain: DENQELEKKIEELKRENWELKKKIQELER

[49] = target: T49, 4H3613-bH; assay: two-hybrid library CCNG1
T49 chain: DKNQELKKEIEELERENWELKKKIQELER

[50] = target: T50, O8-bN; assay: two-hybrid library CCNG1
T50 chain: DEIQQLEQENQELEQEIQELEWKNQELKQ

[51] = target: T51, 4H1338-bH; assay: two-hybrid library CCNG1
T51 chain: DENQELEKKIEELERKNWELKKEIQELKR

[52] = target: T52, 4H3189-bH; assay: two-hybrid library CCNG1
T52 chain: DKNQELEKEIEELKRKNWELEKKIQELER

[53] = target: T53, 4H3631-bH; assay: two-hybrid library CCNG1
T53 chain: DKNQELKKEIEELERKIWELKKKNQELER

[54] = target: T54, 4H906-bH; assay: two-hybrid library CCNG1
T54 chain: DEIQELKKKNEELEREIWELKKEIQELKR

[55] = target: T55, 4H1804-bH; assay: two-hybrid library CCNG1
T55 chain: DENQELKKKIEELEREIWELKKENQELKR

[56] = target: T56, 4H1899-bH; assay: two-hybrid library CCNG1
T56 chain: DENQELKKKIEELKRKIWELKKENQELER

DEIAALEAKIAALKAEIAALEAKNAALKG [Core_IIIN-es_EKEK]
interaction score [1]: 2.11

DKNSQLKQENSELEQEISELEWEISQLEQ [O1-bS]
interaction score [2]: -1.15 | interaction score [3]: -1.37 | interaction score [4]: -0.754 | interaction score [5]: -1.5 | interaction score [6]: -1.23 | interaction score [7]: -0.763 | interaction score [8]: -1.7 | interaction score [9]: 2.08 | interaction score [10]: -1.87 | interaction score [11]: -0.387 | interaction score [12]: -2 | interaction score [13]: -0.395 | interaction score [14]: -0.716 | interaction score [15]: -0.794 | interaction score [16]: -0.914 | interaction score [17]: -1.85

DEIAALEAKIAALKAKIAALKAKIAALKG [Core_IIII-es_EKKK]
interaction score [18]: 1.95

DENAALEAKIAALKAKNAALKAKIAALKG [Core_NINI-es_EKKK]
interaction score [19]: 2.35

DENAALEAKIAALKAENAALEAKIAALKG [Core_NINI-es_EKEK]
interaction score [20]: 1.98

DEIAALEAKIAALKAENAALEAKNAALKG [Core_IINN-es_EKEK]
interaction score [21]: 2.27

DEIAALEAKIAALKAKIAALKAKNAALKG [Core_IIIN-es_EKKK]
interaction score [22]: 2.06

DEIAALEAENAALEAENAALEAKIAALKG [Core_INNI-es_EEEK]
interaction score [23]: 2.15

DENQELEKENEELKREIWELEKKIQELKR [4H1222-bH]
interaction score [24]: 0.0236 | interaction score [25]: 0.793 | interaction score [26]: 0.361 | interaction score [27]: -2.53 | interaction score [28]: 1.19 | interaction score [29]: 0.714 | interaction score [30]: -0.0664 | interaction score [31]: -0.0755 | interaction score [32]: -0.665 | interaction score [33]: 0.758 | interaction score [34]: 0.372 | interaction score [35]: 0.083 | interaction score [36]: -0.0221 | interaction score [37]: 0.693 | interaction score [38]: 2.04 | interaction score [39]: 0.735 | interaction score [40]: -1.4 | interaction score [41]: 1.24 | interaction score [42]: 2.16 | interaction score [43]: -2.48 | interaction score [44]: -0.624 | interaction score [45]: 1.69 | interaction score [46]: -0.605 | interaction score [47]: 1.38 | interaction score [48]: -0.384 | interaction score [49]: -1.34 | interaction score [50]: -2.96 | interaction score [51]: 0.196 | interaction score [52]: -1.2 | interaction score [53]: 0.426 | interaction score [54]: -0.362 | interaction score [55]: 0.345 | interaction score [56]: 0.852
